Patent publication US20250250330A1 (REVOPSIS THERAPEUTICS, published 2025)

How the values were obtained:
[1] = biological target: T1, rpVEGF164 (porcine/pig; AssayGenie_KPRT0149) (Porcine/Pig, UniProt P49151 27-190); test: ELISA on coated pig VEGF-A
T1 construct: Bought protein; also called Pig VEGF-A
T1 sequence (looked up): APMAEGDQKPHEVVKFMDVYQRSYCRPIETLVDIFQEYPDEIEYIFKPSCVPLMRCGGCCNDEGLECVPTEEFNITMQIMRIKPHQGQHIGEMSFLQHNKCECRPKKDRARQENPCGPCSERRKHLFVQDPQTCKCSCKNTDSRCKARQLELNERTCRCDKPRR

[2] = biological target: T2, His-tagged recombinant human ANG-2 (AcroBiosystems, Cat #AN2-H52H4) (human, UniProt O15123 275-496); test: ELISA on coated human ANG-2
T2 construct: also called rhANG-2; rhANG-2-His; not shown: His tag
T2 sequence (looked up): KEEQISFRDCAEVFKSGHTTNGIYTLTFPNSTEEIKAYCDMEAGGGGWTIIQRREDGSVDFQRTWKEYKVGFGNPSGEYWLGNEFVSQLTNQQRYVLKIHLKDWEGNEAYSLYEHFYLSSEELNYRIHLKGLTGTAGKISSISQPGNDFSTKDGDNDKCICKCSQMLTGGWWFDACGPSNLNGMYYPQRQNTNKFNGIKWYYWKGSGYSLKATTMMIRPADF

[3] = biological target: T3, Recombinant human VEGF165 (Peprotech, Cat #100-20) (human, UniProt P15692-4 27-191); test: ELISA on coated human VEGF-A (rhVEGF165)
T3 construct: Bought protein; also called rhVEGF165; rh VEGF165

[4] = biological target: T3, Recombinant human VEGF165 (Peprotech, …); test: ELISA; rhVEGF165 coated, anti-human IgG Fc-HRP detection
Experimental: VEGF₁₆₅ was used to coat Corning 9017 medium binding plates. […] Donkey anti-human IgG Fcγ-HRP (Jackson ImmunoResearch Laboratories, Cat #709-035-098) was used for detection and visualized by TMB substrate. OD450 nm readings were measured by Victor 3 with PerkinElmer 1420 Multilabel Counter.

[5] = biological target: T4, Recombinant human ANG-2 (R&D Systems, Cat #623-AN-025/CF) (human, UniProt O15123 19-496, limits assumed); test: ELISA on rhANG-2 by an independent team; average of three values
T4 construct: also called rhANG-2
T4 sequence (looked up): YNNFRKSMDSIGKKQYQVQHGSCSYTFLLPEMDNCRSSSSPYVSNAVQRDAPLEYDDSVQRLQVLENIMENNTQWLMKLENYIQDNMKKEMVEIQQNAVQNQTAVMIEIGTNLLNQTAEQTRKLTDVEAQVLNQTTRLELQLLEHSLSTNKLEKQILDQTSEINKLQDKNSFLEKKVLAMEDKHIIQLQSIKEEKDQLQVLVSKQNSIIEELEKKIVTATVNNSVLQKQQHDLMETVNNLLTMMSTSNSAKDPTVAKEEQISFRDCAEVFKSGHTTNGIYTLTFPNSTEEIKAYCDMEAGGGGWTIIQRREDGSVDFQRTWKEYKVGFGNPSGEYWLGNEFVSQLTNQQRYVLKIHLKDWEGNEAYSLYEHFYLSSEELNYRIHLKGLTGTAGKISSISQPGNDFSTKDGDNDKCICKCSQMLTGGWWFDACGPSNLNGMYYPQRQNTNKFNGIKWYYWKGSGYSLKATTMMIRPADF

[6] = biological target: T3, Recombinant human VEGF165 (Peprotech, …); test: ELISA; target coated at 1 ug/mL, anti-human IgG Fc-HRP detection
Experimental: Third, the binding to rhPIGF-1 or rhPIGF-3 was tested in comparison with rhVEGF₁₆₅. Target proteins were used to coat Corning 9017 medium binding plates at 1 μg/mL and 100 μl per well. […] Donkey anti-human IgG Fcγ-HRP was used for detection. OD450 nm readings were measured by Victor 3.

[7] = biological target: T3, Recombinant human VEGF165 (Peprotech, …); test: ELISA on rhVEGF165; biotinylated anti-VpreB antibody and streptavidin-HRP detection
[8] = biological target: T5, Recombinant human VEGF121 (Peprotech, Cat #100-20A) (human, UniProt P15692-9 27-147); test: ELISA; rhVEGF121 coated at 1 ug/mL, anti-human IgG Fc-HRP detection (RO-101_Sample 1)
T5 construct: Bought protein; also called rhVEGF121; rh VEGF121
T5 sequence (looked up): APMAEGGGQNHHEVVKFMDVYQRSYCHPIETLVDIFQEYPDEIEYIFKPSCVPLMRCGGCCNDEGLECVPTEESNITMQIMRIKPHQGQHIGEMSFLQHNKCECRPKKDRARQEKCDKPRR
Experimental: (§1) Donkey anti-human IgG Fcγ-HRP (Jackson ImmunoResearch Laboratories, Cat #709-035-098) was used for detection and visualized by TMB substrate. OD450 nm readings were measured by Victor 3 (PerkinElmer 1420 Multilabel Counter).

[9] = biological target: T3, Recombinant human VEGF165 (Peprotech, …); test: ELISA; rhVEGF165 coated at 1 ug/mL, anti-human IgG Fc-HRP detection (RO-101_Sample 1)
Experimental: as §1

[10] = biological target: T2, His-tagged recombinant human ANG-2 …; test: competition ELISA; IC50 ratio against Faricimab for inhibition of ANG-2-Tie-2 binding
[11] = biological target: T6, rhVEGF-C (AcroBio_VEC-H4225) (human, UniProt P49767 103-227, limits assumed); test: ELISA: rhVEGF-C_AcroBio coated at 1 ug/mL, RO-101_Sample 1 titrated, detected with anti-human IgG Fc-gamma-HRP
T6 construct: domain: PDGF domain; Bought protein; not shown: His tag
T6 sequence (looked up): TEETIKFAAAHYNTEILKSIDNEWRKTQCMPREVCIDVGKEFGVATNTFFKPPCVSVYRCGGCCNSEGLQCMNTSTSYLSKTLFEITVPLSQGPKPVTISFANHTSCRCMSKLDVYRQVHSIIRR
Experimental: Different target proteins were used to coat Corning 9017 medium binding plates at 1 μg/mL and 100 μl per well. Donkey anti-human IgG Fcγ-HRP was used for detection. OD450 nm readings were measured by Victor 3.

EC50 [1]: 0.0198 nM | EC50 [2]: 0.007 nM | EC50 [3]: 0.0171 nM | EC50 [4]: 0.0231 nM | average EC50 [5]: 0.0491 nM | EC50 [6]: 0.0162 nM | EC50 [7]: 0.0057 nM | EC50 [8]: 0.0146 nM | EC50 [9]: 0.0135 nM | Fold [10]: 17.2 fold | binding result [11]: no binding (tested: 100 nM (Log(nM) 2))
B1: RO-101 VEGF/ANG-2 bispecific surrobody (bispecific antibody, human IgG1, L234A L235A)
heavy 1: not shown
heavy 2: EVQLVESGGGLVKPGGSLRLSCAASGFTFSSYGMHWVRQAPGKGLEWVAGISADSGDKNYADSVKGRFTISRDNAKNSLYLQMNSLRAEDTAVYYCAKEFISWIYTFDYLDYWGQGTLVTVSSASTKGPSVFPLAPSSKSTSGGTAALGCLVKDYFPEPVTVSWNSGALTSGVHTFPAVLQSSGLYSLSSVVTVPSSSLGTQTYICNVNHKPSNTKVDKKVEPKSCDKTHTCPPCPAPEAAGGPSVFLFPPKPKDTLMISRTPEVTCVVVDVSHEDPEVKFNWYVDGVEVHNAKTKPREEQYNSTYRVVSVLTVLHQDWLNGKEYKCKVSNKALPAPIEKTISKAKGQPREPQVCTLPPSRDELTKNQVSLSCAVKGFYPSDIAVEWESNGQPENNYKTTPPVLDSDGSFFLVSKLTVDKSRWQQGNVFSCSVMHEALHNHYTQKSLSLSPG
light: QPVLHQPPAMSSALGTTIRLTCTLRNDHDIGVYSVYWYQQRPGHPPRFLLRYFSQSDKSQGPQVPPRFSGSKDVARNRGYLSISELQPEDEAMYYCAMGARSSVTHVFGSGTQLTVLSQPKATPSVTLFPPSSEELQANKATLVCLMNDFYPGILTVTWKADGTPITQGVEMTTPSKQSNNKYAASSYLSLTPEQWRSRRSYSCQVMHEGSTVEKTVAPAECS
notes: Format SgG1; also called Sample 1
